Key:
[1] = target: T1, LAG-3-hFc protein (human LAG-3 extracellular region with hFc tag) (human, UniProt P18627 23-450); experiment: FACS, inhibition of LAG-3-hFc binding to MHC II on Raji cells, antibody 0.000 nM
T1 construct: also called hLAG-3-hFc; LAG-3 protein; not shown: human IgG Fc fragment (hFc) of the pCpC vector
T1 sequence: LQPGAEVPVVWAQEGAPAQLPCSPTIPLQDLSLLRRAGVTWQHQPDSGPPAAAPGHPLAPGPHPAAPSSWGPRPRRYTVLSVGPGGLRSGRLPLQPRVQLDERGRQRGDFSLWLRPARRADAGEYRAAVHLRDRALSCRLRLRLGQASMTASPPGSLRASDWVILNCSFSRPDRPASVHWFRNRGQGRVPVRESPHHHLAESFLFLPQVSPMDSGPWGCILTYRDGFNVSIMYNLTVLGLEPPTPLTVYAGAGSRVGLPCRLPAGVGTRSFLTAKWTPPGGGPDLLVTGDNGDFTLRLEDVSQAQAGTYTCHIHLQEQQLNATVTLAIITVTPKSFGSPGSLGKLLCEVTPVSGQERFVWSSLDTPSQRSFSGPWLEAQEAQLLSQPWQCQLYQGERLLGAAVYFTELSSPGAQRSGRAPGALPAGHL
Description: The FACS reaction plate incubating the Raji cells was centrifuged to discard the supernatant. The above mixture was added as 100 μl per well to Raji cells and incubated on ice for 1-2 hours. The plate was washed twice with blocking solution (PBS, 2% fetal bovine serum) by centrifugation, added with 100 microliters of fluorescent (Alexa 488)-labeled secondary antibodies per well, and incubated on ice for 1.0 hours. The plate was washed 2-3 times by centrifugation with blocking solution (PBS, 2% fetal bovine serum), added with 100 microliters of PBS per well to suspend cells, and detected using FACS (FACS Calibur, BD) and the results were analyzed. Wherein, the IgG control was murine IgG, and the data in the table is the inhibition rate (%).

[2] = target: T2, human LAG-3 protein with hFc tag (hLAG-3-hFc protein) (human, UniProt P18627 23-450); experiment: ELISA, hLAG-3-hFc coated; 0.0000 nM
T2 construct: also called immunogen 1; LAG-3 extracellular domain protein; not shown: human IgG Fc fragment (hFc) of the pCpC vector
T2 sequence: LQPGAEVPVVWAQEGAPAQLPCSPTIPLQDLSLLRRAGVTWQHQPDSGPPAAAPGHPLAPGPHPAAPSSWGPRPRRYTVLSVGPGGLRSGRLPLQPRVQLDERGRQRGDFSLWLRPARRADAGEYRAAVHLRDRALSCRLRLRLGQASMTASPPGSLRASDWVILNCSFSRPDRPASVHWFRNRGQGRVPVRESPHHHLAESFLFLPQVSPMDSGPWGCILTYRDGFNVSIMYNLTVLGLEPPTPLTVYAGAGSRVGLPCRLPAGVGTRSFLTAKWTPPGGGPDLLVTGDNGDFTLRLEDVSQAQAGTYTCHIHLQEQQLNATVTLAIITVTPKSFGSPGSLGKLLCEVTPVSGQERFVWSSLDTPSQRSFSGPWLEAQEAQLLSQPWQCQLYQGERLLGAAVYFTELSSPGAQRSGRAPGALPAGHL
Description: (§1) The plate was sealed with plastic film and incubated overnight at 4° C. The plate was washed 2 times with the plate washing solution (PBS+0.01% Tween20) on the next day, and added with the blocking solution (PBS+0.01% Tween20+1% BSA) and blocked at room temperature for 1-2 hours. The blocking solution was poured out, and the plate was added with 50-100 μl of the antibody sample to be tested to each well, incubated at 37° C. for 1-2 hours, and washed 2-3 times with a plate washing solution (PBS+0.01% Tween20). HRP (horseradish peroxidase) labeled secondary antibody was added, and the plate was incubated at 37° C. for 1-2 hours, and washed 2-3 times with a plate washing solution (PBS+0.01% Tween20). 100 μl of TMB substrate was added to each well. After incubated at room temperature for 15-30 minutes, the plate was added with 100 μl of stop solution (1.0N HCl) to each well.

[3] = target: T2, human LAG-3 protein with hFc tag …; experiment: ELISA, hLAG-3-hFc coated; 6.6667 nM
Description: as §1

[4] = target: T3, monkey LAG-3 (full length, on the cell surface) (monkey, UniProt P18627 24-525 (human entry)); experiment: FACS, HEK293-cLAG-3; 0.064 nM
T3 construct: also called HEK293-cLAG-3; monkey LAG-3 protein on the cell surface
T3 chain: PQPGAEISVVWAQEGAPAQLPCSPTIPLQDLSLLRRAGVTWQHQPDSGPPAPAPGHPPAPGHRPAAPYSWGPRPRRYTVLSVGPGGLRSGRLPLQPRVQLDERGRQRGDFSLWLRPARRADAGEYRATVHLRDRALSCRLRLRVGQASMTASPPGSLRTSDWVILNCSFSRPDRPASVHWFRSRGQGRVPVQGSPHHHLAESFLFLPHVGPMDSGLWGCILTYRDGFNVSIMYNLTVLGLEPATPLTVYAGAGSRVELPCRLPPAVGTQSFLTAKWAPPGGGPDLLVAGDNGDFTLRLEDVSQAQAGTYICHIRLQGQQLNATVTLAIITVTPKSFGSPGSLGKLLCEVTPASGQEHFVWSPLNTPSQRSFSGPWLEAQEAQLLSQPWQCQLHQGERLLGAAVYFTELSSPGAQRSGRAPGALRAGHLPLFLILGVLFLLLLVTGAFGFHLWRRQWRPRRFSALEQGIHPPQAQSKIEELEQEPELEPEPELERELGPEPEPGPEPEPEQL
From the text: The pIRES plasmid with the monkey-derived full-length gene was transfected into the HEK293 cell line to construct a HEK293 stable cell line containing monkey LAG-3 (herein referred to as HEK293-cLAG-3 stable cell line). The HEK293-hLAG-3 stable cell line and HEK293-cLAG-3 stable cell line were expanded in a T-75 cell culture flask to a 90% confluence. The medium was aspirated, and the cells were washed with HBSS (Hanks' Balanced Salt Solution) 1-2 times, then treated with a enzyme-free cell dissociation fluid (Versene solution: Life technology) and the cells were collected. The cells were washed with HBSS buffer for 1-2 times. After counted, the cells were diluted with HBSS to 1-2×10⁶ cells per ml, added with 1% goat serum blocking solution, incubated on ice for 20-30 minutes, and then washed with HBSS for 2 times by centrifugation. The collected cells were suspended in the FACS buffer (HBSS+1% BSA) to 2×10⁶ cells/ml, added as 100 microliters per well to a 96-well FACS reaction plate, added with 100 microliters per well of the antibody sample to be tested, incubated on ice for 1-2 hours. The plate was washed twice with the FACS buffer by centrifugation, added with 100 microliters of fluorescent (Alexa 488)-labeled secondary antibodies per well, and incubated on ice for 0.5-1.0 hours. The plate was washed 2-3 times with FACS buffer by centrifugation, added with 100 μl fixative solution (4% Paraformaldehyde) per well to suspend the cells. 5-10 minutes later, it was washed 1-2 times with FACS buffer by centrifugation. The cells were suspended with 100 microliters of FACS buffer, FACS (FACSCalibur, BD) was used for detection and the results were analyzed.

B1: 556F6B8 mouse-human chimeric antibody (antibody, V domains shown)
VH: RVQLKQSGPGLVQPSQSLSITCTVSGFSLIKYGVHWVRQSPGEGLEWLGVIWRGGITDYNAAFMSRLSITKDNSKSQVFFKMNSLQADDTAIYYCAKWDGPLAMDYWGQGTSVTVSS
VL: DIVMTQSHKFLSTSVGDRVSITCKASQDVGTTVAWYQQKPGQSPKLLIYWASTRHTGVPDRFTGSGSGTDFTLTISNVQSEDLADYFCQQYSSYPYTFGGGTKLEIK
notes: also called mAb123-556F6B8; 556F8B8
Inhibition rate (%) [1]: 12.9%

B2: 556F6B8 (LAG-3 mouse-human chimeric antibody) (antibody, V domains shown)
VH: RVQLKQSGPGLVQPSQSLSITCTVSGFSLIKYGVHWVRQSPGEGLEWLGVIWRGGITDYNAAFMSRLSITKDNSKSQVFFKMNSLQADDTAIYYCAKWDGPLAMDYWGQGTSVTVSS
VL: DIVMTQSHKFLSTSVGDRVSITCKASQDVGTTVAWYQQKPGQSPKLLIYWASTRHTGVPDRFTGSGSGTDFTLTISNVQSEDLADYFCQQYSSYPYTFGGGTKLEIK
notes: also called 556F8B8
OD450 [2]: 0.12 OD450 | OD450 [3]: 3.73 OD450

B3: 556F6B8 (mouse antibody purified from hybridoma) (antibody, V domains shown)
VH: RVQLKQSGPGLVQPSQSLSITCTVSGFSLIKYGVHWVRQSPGEGLEWLGVIWRGGITDYNAAFMSRLSITKDNSKSQVFFKMNSLQADDTAIYYCAKWDGPLAMDYWGQGTSVTVSS
VL: DIVMTQSHKFLSTSVGDRVSITCKASQDVGTTVAWYQQKPGQSPKLLIYWASTRHTGVPDRFTGSGSGTDFTLTISNVQSEDLADYFCQQYSSYPYTFGGGTKLEIK
notes: also called mAb123-556F6B8
Mean fluorescence intensity [4]: 5.1 MFI

B4: 405B8H3 (mouse antibody purified from hybridoma) (antibody, V domains shown)
VH: QVQLQQSGAELVRPGASVTLSCKASGYTFTDYEMHWVKQTPVHGLEWIGATDPETGNSAYNQKFKGKAIMTADKSSSTAYMELRSLTSEDSAVYYCISTGWNDWGQGTSLTVSS
VL: DIKMTQSPSSMYASLGERVTITCKASQDINSYLSWFQQKPGKSPKTLIYRADRLLDGVPSRFSGSGSGQDYSLTISSLEYGDMGIYYCLQYDEFPYTFGGGTKLEIK
notes: also called mAb103-405B8H3; 405B81-13
Mean fluorescence intensity [4]: 4.9 MFI

B5: 105F1E10 (LAG-3 mouse-human chimeric antibody) (antibody, V domains shown)
VH: EVQLQQSGPELVKPGASVKMSCRASGYTFTDFKMHWMKQSHGKSLEWIGYIAPNNGGTAYNQKFRGKATLTVNESSNTAYMELRSLTSEDSAVYYCVDWDDVDYWGQGTTLTVSS
VL: DIKMTQSPSSMYASLGERVTITCKASQDINSYLSWFQQKSGKSPKTLIYRANRLVDGVPSRFSGSGSGQDYSLTISSLEYEDMGIYYCLQYVEFPLTFGAGTKLELK
OD450 [2]: 0.11 OD450 | OD450 [3]: 3.53 OD450

B6: 105F1E10 mouse-human chimeric antibody (antibody, V domains shown)
VH: EVQLQQSGPELVKPGASVKMSCRASGYTFTDFKMHWMKQSHGKSLEWIGYIAPNNGGTAYNQKFRGKATLTVNESSNTAYMELRSLTSEDSAVYYCVDWDDVDYWGQGTTLTVSS
VL: DIKMTQSPSSMYASLGERVTITCKASQDINSYLSWFQQKSGKSPKTLIYRANRLVDGVPSRFSGSGSGQDYSLTISSLEYEDMGIYYCLQYVEFPLTFGAGTKLELK
notes: also called mAb009-105F1E10
Inhibition rate (%) [1]: -32.3%

B7: 405B8H3 (LAG-3 mouse-human chimeric antibody) (antibody, V domains shown)
VH: QVQLQQSGAELVRPGASVTLSCKASGYTFTDYEMHWVKQTPVHGLEWIGATDPETGNSAYNQKFKGKAIMTADKSSSTAYMELRSLTSEDSAVYYCISTGWNDWGQGTSLTVSS
VL: DIKMTQSPSSMYASLGERVTITCKASQDINSYLSWFQQKPGKSPKTLIYRADRLLDGVPSRFSGSGSGQDYSLTISSLEYGDMGIYYCLQYDEFPYTFGGGTKLEIK
notes: also called mouse-human chimeric antibody 405B8H3
OD450 [2]: 0.12 OD450 | OD450 [3]: 3.54 OD450

B8: 105F1E10 (mouse antibody purified from hybridoma) (antibody, V domains shown)
VH: EVQLQQSGPELVKPGASVKMSCRASGYTFTDFKMHWMKQSHGKSLEWIGYIAPNNGGTAYNQKFRGKATLTVNESSNTAYMELRSLTSEDSAVYYCVDWDDVDYWGQGTTLTVSS
VL: DIKMTQSPSSMYASLGERVTITCKASQDINSYLSWFQQKSGKSPKTLIYRANRLVDGVPSRFSGSGSGQDYSLTISSLEYEDMGIYYCLQYVEFPLTFGAGTKLELK
notes: also called mAb009-105F1E10
Mean fluorescence intensity [4]: 4.5 MFI

B9: 409B11E12 (mouse antibody purified from hybridoma) (antibody, V domains shown)
VH: QVQLQQSGAELVRPGASVTLSCKASGYTFTDYEMHWVKQTTVHGLEWIGATDPETSYSAYNQKFKGKAILTADKSSSTAYMELRSLTSEDSAVYYCIATGWNDWGQGTSLTVSS
VL: DLKMTQSPSSMYASLGERVTITCKASQDINSYLSWFQQKPGKSPKTLIYRANRLLDGVPSRFSGSGSGQDYSLTISSLEYEDMGIYYCLQYDEFPYTFGGGTKLEIK
notes: also called mAb104-409B11E12
Mean fluorescence intensity [4]: 4.2 MFI

B10: 409D4E10 (LAG-3 mouse-human chimeric antibody) (antibody, V domains shown)
VH: QVQLQQSGAELVRPGASVTLSCKASGNTFTDYEMHWVKQTPVHGLEWIGATDPETDNTAYNQKFKGKAILTTDKSSSTAYMELRSLTSEDSAVYYCITSGWNDWGQGTSLTVSS
VL: DIKMTQSPSSMYASLGERVTITCKASQDINSYLSWFQQKPGKSPKTLIYRANRLLDGVPSRFSGSGSGQDYSLTISSLEYEDMGIYYCLQYNEFPYTFGGGTKLEIK
OD450 [2]: 0.14 OD450 | OD450 [3]: 3.73 OD450

B11: 409D4E10 (mouse antibody purified from hybridoma) (antibody, V domains shown)
VH: QVQLQQSGAELVRPGASVTLSCKASGNTFTDYEMHWVKQTPVHGLEWIGATDPETDNTAYNQKFKGKAILTTDKSSSTAYMELRSLTSEDSAVYYCITSGWNDWGQGTSLTVSS
VL: DIKMTQSPSSMYASLGERVTITCKASQDINSYLSWFQQKPGKSPKTLIYRANRLLDGVPSRFSGSGSGQDYSLTISSLEYEDMGIYYCLQYNEFPYTFGGGTKLEIK
notes: also called mAb112-409D4E10
Mean fluorescence intensity [4]: 4.7 MFI

B12: 409B11E12 (LAG-3 mouse-human chimeric antibody) (antibody, V domains shown)
VH: QVQLQQSGAELVRPGASVTLSCKASGYTFTDYEMHWVKQTTVHGLEWIGATDPETSYSAYNQKFKGKAILTADKSSSTAYMELRSLTSEDSAVYYCIATGWNDWGQGTSLTVSS
VL: DLKMTQSPSSMYASLGERVTITCKASQDINSYLSWFQQKPGKSPKTLIYRANRLLDGVPSRFSGSGSGQDYSLTISSLEYEDMGIYYCLQYDEFPYTFGGGTKLEIK
OD450 [2]: 0.13 OD450 | OD450 [3]: 3.64 OD450

Source: patent publication US20210155689A1 (SHANGHAI PHARMAEXPLORER, published 2021)
